The values that follow come from paper PMC5355995.

Data set [1] concerns the target T1, Rex-His6 (Streptomyces avermitilis ATCC31267) (UniProt Q82E78).
T1 sequence: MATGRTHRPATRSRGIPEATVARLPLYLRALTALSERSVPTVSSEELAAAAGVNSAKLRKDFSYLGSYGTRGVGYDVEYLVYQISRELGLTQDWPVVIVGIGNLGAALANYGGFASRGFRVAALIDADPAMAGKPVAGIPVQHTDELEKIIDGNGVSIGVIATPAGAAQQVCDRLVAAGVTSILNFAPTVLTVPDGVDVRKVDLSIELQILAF
The experiment in a line: EMSA. Conditions: EMSA: DIG Gel Shift Kit (Roche) binding buffer, 1 ug poly[d(I-C)] in 20 ul, 30 min at 25 C, 5% native PAGE in 0.5x TBE; footprinting: 400 ng DNA in 25 ul ….

Data set [2] addresses T1, Rex-His6 (Streptomyces avermitilis ATCC31267). Description: DNase I footprinting. Conditions: EMSA: DIG Gel Shift Kit (Roche) binding buffer, 1 ug poly[d(I-C)] in 20 ul, 30 min at 25 C, 5% native PAGE in 0.5x TBE; footprinting: 400 ng DNA in 25 ul ….

With “CAGTTGCCACGGTGCTCCTGCGGGTAGCGCGGGGCTGCAGGCGGTCACACGTACCTAGACCGCCCCGTCGAAAGCAGGCTATGTCTTTGTGAACGCGTGCACAAAGATAGTGTCCGATTTGCCCGGCCAACGTGACCGGGGTCACGCGCCCCCGGCGTATGCGTATGGAACCGGCACACAGGCGCCTTCGTTCCTCACTCGACGGGGGCAAAACCGCACACACTCCTCAACGATCCACGCCCCCCGAGACCAAACCGCCCCCGATCCTAAGCGACTTTCCGGGCTGTTTGGACTACTC (double strand) [rex promoter probe]”, the binding result in data set [1] and in data set [2] was “binds” throughout.

With “GAGTCTCTACGTGGCGATCGAGACGGCCCGCAACACCGGCCTCCACAGAGAGCCAGAACCCCTCCTCAATCCAAAGGACCACGTCAGTCCGTCTGACGATCGGCCCTTCACTTGTTGAGGGATTCGTGAAAGCGTTCACATTCACAAGCAACCTGAATGTAATACCAAGGAGAGGTAGCAGCCATGGA (double strand) [wblE promoter EMSA probe]”, the binding result in data set [1] is reported as “binds”.

Take “GCTTCATGATCCTTCGCCAGGTGGCAGAGATCACAAACTCCTTACTTACCCCCGTGTCGCAGATCACAGACCGCCGGGCATAGGATGCGCAGCAGTTGGGCTTGTGACCTGCTTCACATGTACGCGATCTTCGTCGGGACGCACGGGGTTCGTGGGACGTGTGAGGCGGGAGTGCTCGCCCGACGCAACCTCCCCCAAGGTCTCGGCTCCGCTCGACCAGGGGGACCCCCATGCAGTCAGTGCCGACTGAGAGGAGCGAGGAGCGTGAA (double strand) [nuoA1 promoter EMSA probe]”: in data set [1], the binding result is “binds”.
